Results published in the nanobody polyreactivity screen of Harvey et al. (2022).

Test: yeast display, Sf9 membrane polyspecificity reagent, FACS + sequencing; frameworks hold sequencing errors
Procedure, shortened: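 Galactose induction of a Saccharomyces cerevisiae BJ5465 synthetic nanobody display library ran 36–48 hours. The cells were then stained for 1 hour at 4 °C with 10% biotinylated, detergent-solubilized Sf9 membrane reagent, pulled down on streptavidin microbeads and FACS-sorted into low and high (top ~1%) gates on expression and reagent-binding fluorescence. Labels for polyreactivity follow the gate of origin.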

Row | Sequence | polyreactivity (PSR sort gate)
1 | QDQLVESVGGLVQAGGSLRLSCAASGLIFYYYDMGWYRQAPGKERELVAAISSRGSSTYYADSVKGRFTISRVNAKNTVYLQMNSLKPEDTAVYYCAADSVSKYFGYDYWGQGTQVTVSS | high polyreactivity
2 | QVQLVYSGGGLVQAGGSLRLSCAASGSTFYRYAMGWYRQAPGKERELVATITRSGGSTYYADSVKGRFTISRDNAKNTVYLQMNRLKPEDTAVYYCAVRLWFYYNYWGQGTQVTVSS | low polyreactivity
3 | QVQLVESGGGLVQAGGSLRLSCAASGFTFWAYAMGWYRQAPGKERELVAVISGSGGRTYYADSVKGRFTISRDNAKNTVYLQMNSLKPEDTAVYYCNARYPRLHRTYNYWGQGTLVTVSS | high polyreactivity
4 | QVQLVESGGGLVQAGGRLRLSCAASGNIFYAYALGWYRQAPGKERELVAAISWSGDSTYYADSVKGRFTISRDNAKNTVYLQMNSLKPEDTAVYYCAARKVTYHYQWMDYWGQGTQVTVSS | low polyreactivity
5 | QEQLVESGRGLVQAGGSLRVSCAASGSIFSVNGMGWYRQAPGKARELVAAIRRSGGSTYYADSVKGRFTISRDHAKNTVNLQRNSLKPEDTAVYYCAAPVRQSSYTRYDAWGQGTQVTVSS | high polyreactivity
6 | QVQIVESGGGLVQAGGSLRLTCAASGFTFTDYAMGWYRQAPGIERELVAVITYDSTYYADSVKGRFTISRDNAKNTVSLHMNSLKPEDTAVYYCAADSYDWGEFDYWGQGTQVTVSS | low polyreactivity
7 | QVQLVESGGGLVQAGGSLRLSCAASGFTFYVYTMGWYRQAPGKERELVASISGGRTYYADSVKGRFTISRDNAKNTVYLQMNSLKPEDTAVYYCAAVPYPSYYDTRYDYWGPGTQVTVSS | low polyreactivity
8 | QVQLVESGGGLVQAGGSLRLSCAASGLTFTYNAMGWYRQAPGKERELVAAISKRGGSTYYADSVKGRFTISRDNAKNTVYLQMNSLKPEDTAVYYCNARTTTRSYPAFDYWGQGTQVTVSS | high polyreactivity
9 | QVQLVESGGGLVQAGGSLRISCAASGGTFRPNAKGWSRQAPGKERELVAAITRSGGSTYYADSVKGRFTISRDNAKNTVYLQRNSLKPEETAVYYCARDLREWGQGTQVTVSS | low polyreactivity
10 | QVQLVESGGGLVQAGGSLRLTCAASGNTFNNNAMGWYRQAPGKERELVAAISGSGGSTYYADSVKGRFTISRDNAKNTVYLQMNSLKPEDTAVYYCAVRLVHGGKRYGYWGQGTQVTVSS | high polyreactivity
11 | QVQLVESGGGLVQAGGSLRLSCAASGSTFLTNAMGWYRQAPGKERELVAAITWSGTSTYADSVKGRFTISRDNAKNTVYLQMNSLKPDDTAVYYCAAPILSFPSPYVQYDYWGQGTQVTVSS | low polyreactivity
12 | QVQIVESGGGLVQAGGSLSLSCAASGFTLVGYAMGWYRQAPGKERELVAAISSGGRTKYADSVKGRFTISRDNAKNTVYLQMNSLKPEVTAVFYCAAPYNVRWRYGYWGQGTQVTVSS | high polyreactivity
13 | QVQLVESGGGLVQAGGSLRLSCAASGRTFGTNTKGWSRQAPGKERELVAAISSRGGTTYYADSVKGRFTISRDNAKNTVYLQMYSLKPEDTAVYYCNRARSSSRYDYWGQGTQVTVSS | low polyreactivity
14 | QVHLVESGGGLVQAGGSLRLSCAASGFIYWAYAMGWYRQAPGKERELVAGITRSGGSTYYADSVKGRFTISRDNAKNTVYLQMNSLKPEDTAVYYCAADFRYNGGYWGQGTQVTVSS | high polyreactivity
15 | QVQLVESGGGLVQAGGSLRLSCAASGNTFGENAMGWYRQAPGKERELVAAISNGGTTNYADSVKGRFTISRDNAKNTVYLQMNSLKPEDTAVYYCNAKFGISQPGHSGLLKMDYWGQGTQVTVSS | low polyreactivity
16 | QVQLVESGGCLVQAGGSLRLSCAASGYIFFINSMGWYRQAPGKERELVAAITRRGVSTYYADSVKGRFTISRDNAKNSVYLQMHSLKPEDTAVYYCATEHNHLGYYYWGQGTQVTVSS | low polyreactivity
17 | QVQLVESGGGLDQAGGSLRLSCAASGRTFGYYARGWYRQAPGKERELVAAISYSGGTTYYADSVKGRYTISRDNAKNTVYLQMNSLKPEDTAVYYCATGGYSTRQSTFDYWGQGTQVTVSS | low polyreactivity
18 | QVQLVESGGGLVQAGGSLRLSCAASGRILFSYAMGWYRQAPGKERELVATISSGGRTNYADSVKGRFTISRDNAKNTVYLQMNSLKPEDTAVYYCNTEYLVWYPYDYWGQGTQVTVSS | low polyreactivity
19 | QVQLVESGGGLVQAGGTLRLSCAASGSTFGYYTMGWYRQAPGKERELVAAITWSGGSTYYADSVKGRFTISRDNAKKTVYLQMNSLKAEDSAVSYCAADDYWTPFGYSGQGTQVTVSS | low polyreactivity
20 | QVQLVESGGGLVQAGGSLRLSCAASGFIFRYYAMGWYRQAPGKERELVAAISSRGGSTYYADSVKGRFTISRDNAKNTVYLQMNSLKPEDTAVYYCAKRGFYTDRDYWGQGTQVTVSS | high polyreactivity
21 | QVQLVESGGGLVQAGGSLRLSCAASGRTFWNYAMGWYRQAPGKERELVAVIRFSDGSTYYADSVKGRFTISRDNAKNTGYLQMISLKPEDTAVFYCAAKGPRRWGSGFDYWGQGTQVTVSS | low polyreactivity
22 | QVQLVESGGGLVQAGGSLRLSCAASGSIFYYYAMGWYRQAPGKERELVAAITSRAGDTYYADSVKGRFTISRDNAKNTVYLQMNSLKPEDTAVYYCAADFPAYYDYYYWGQGTQVTVSS | low polyreactivity

Row | Sequence | polyreactivity (PSR sort gate)
23 | QVQLVESGGGLVQAGGSLRLSCAASGILFYLNAMGWYRQAPGKERELVASISTGGGTNYADSVKGRFTISRDYAKNTVYLQMNSLKPEDTAFYYCAAKRRNTYTLYYYWGQGTQVTVSS | high polyreactivity
24 | QVQLVESGGGLVQAGGSLRLSCAASGITFPYYAMGWYRQAPGKERELVAAISSGGSTNYADSVKGRFTISRDNAKNTVYLQMNSLKPEDTAVYYCNADVRSYFYDYWGQGTQVTVSS | low polyreactivity
25 | QVQLEESGGGLVQAGGSLRLSCAASGSTFQLYAMGWYRPAPGKERELVAGISRDGSTYYADSVKGRFTISRDNAKNTVFLQMNSLKPEDTAVYYCAAKYYGNKRDLYYWGQGTQVTVSS | low polyreactivity
26 | QVQLVESGGGLFQAGGSLRLSCAASGLIFGRYAMGWYRPAPGKERELVAAISRSGGSTHYADSVKGRFTISRDNAKNTVYLQMNSLKPEDTAVYYCAAVWPFDRSRMDYWGQGTQVTVSS | high polyreactivity
27 | QVQLVESGGGLVQAGGSLRLSCAASGSTFAYYVMGWYRQAPGKERELVAAITSSGGRTYYADSVKGRFTISRDNAKNTVYLQMNSLKPEDTAVYYWAKVSQRRVDNSDYDYWGQGTQVTVSS | high polyreactivity
28 | QVQIVESGGGLVQAGGSLRLSCAASGSTFNRNAMGWNRQATGKERELVAAITRSASSTYYADSVKGRFTISRDNAKNTVYLQMNSLKPEDTAVYYCAVEYVAYLYRMDYWGQGTQVTVSS | high polyreactivity
29 | QVQLVESGGGLVQAGGSLRLSCAASGITLYEYAMGWYRQAPGKERELVAAMSTSGGRTRYADSVKGRFTISRDNAKNTVYLQMNSLKPEDTAVYYCNRLYGPGFKSVYGYDYWGQGTQVTVSS | high polyreactivity
30 | QVQLVESGVGLVHAGGSLRLSCAASGFIFVRYSIGWYRQAPGKEREFVASISWSGGSTYYADSVKGRFTISRDNAKNTVYLQMNSLKPEDTAVYYCAAYVRKDRSRGLYGYWGQGTQVTVSS | high polyreactivity
31 | QVQLVESGAGLVQAGGSLRLSCAASGITFGRYTMGWYRQAPGKERELVAAITNGDITYYADSVKGRFTISRDNAKNTVYLQMNSLKPEDTAVYYCAADRSFWYDYWGQGTQVTVSS | high polyreactivity
32 | QVQLVESGGALVQAGRSLRLSCAASGSIFSSYAMGRYRQAPGKERELVAAISRSGGRTYYADSVKGRFTITRDNAKNTVYLQMNSLKTEDTAVYYCAARRVLGEYGYWGQGTQVTVSS | high polyreactivity
33 | QDQLVESGGGLVQAGGSLRLSCAASGSTLVKYAMGWYRQAPGKERELVARITLNGGRTYYADSVKGRFTISRDNAKNTVYLQMNSLKPVDTAVYYCAKSLPHSTSRDYWGQGTQVTLSS | low polyreactivity
34 | QVQHVESGGGLVHAGGSLRLSCAASGSTFRPYPRGWSRQAPGKERELVAAIRKIGGRTYYADSVKGRFTISRDNAKNTVYLQMNSLKPEDTAVYYCNKRIGGGVHAYNYWGQGTQVTVSS | low polyreactivity
35 | QVQLVESGGGLVQAGGSLRLSCAASGRIFYKNAMGWYRPEPGKEREVVAAISSSGTRTYYADSVKGRFTISRENAKNTVSLQMNSLKPEDTAVYYCAAALGWYSAFGYWGQGTQVTVSS | high polyreactivity
36 | QVQLVESGGGLVQAGGSLRLSCAASGSTFGNNAMGWYRQAPGKERELVASISWSSGRTYYADSVKGRFTISRDNAKNTVYLQMNSLKREDTAVYYCAAPLPVDVVWDRSAEVRYDYWGQGTQVTVSS | low polyreactivity
37 | QVQLVESGGGLVQAGGSLRLSCAASGFIFGYNAMGWYRQEPGKERELVARIRYRGARTYYADSVKGRFTISRDNAKNTVYLQMNSLKPEDTAVYYCAAVASWPGGYDYWGQGTQVTVSS | high polyreactivity
38 | QVQLVESGGGLVQAGGSVRLSCAASGRTFYYNAMGWYRQAPGKERELVAAISWSGGSTYYADSVKGRFTISRDNAKNTVYLQMNSLKPEDTAVYYCAARSRYYHFDYWGQGTQVTVSS | high polyreactivity
39 | QVQLVESGGGLVQAGGSLRLSCAASGSTFEYYAMGWYRQAPGKERELVAAISRTGGRTYYADSVKGRFTISRDNAKNTVYLQMNSLKPEDTAVYYCNAVTRIGGGDYDDWGQGTQVTVSS | low polyreactivity
40 | QVQLVESGGGLVQAGGILRLSCAASGRTFGLYAMGWYRQAPGKERELVAAISWGGGRTYYADSVKGRFTISRDNAKNTVDLQMNSVKPEYTAVYYCNAVYSPRYYVGGYDYWGQGTHVTVSS | high polyreactivity
41 | QVQLVESGRGLVQAGGSLRLSCAASGSIFIVYAMGWYRQAPGKERELVAAISWSGGSTYYADSVKGRFTISRDNAKNTVYLQMNSLKPEDSAVYFCAAKYTLPFRDVKYYSWGQGTQVTVSS | high polyreactivity
42 | QVQLEESWGGLVQAGGSHRLICAASGSTIGYYAMGWYRQAPWKEREFVASITWGGASTDYADSVKGRFTISRDNAKNSVYLQMNSMKPEDTAVYYCAKDNWDNPRPTSEMDYWGQGTQVTVSS | low polyreactivity
43 | QDQLVESGGGLVQAGGSLRLSCAASGIIFDVYAMGWYRPAPWNERELVAGITIGDITYYADSVKGRFTISRDNAKNTVYLQMNSLKPEDTAVYYCAADSYYYQTAYDYWGQGTQVTVSS | low polyreactivity
